According to publication PMC4193212:

Legend:
Experiment in all cases: two-hybrid; split-ubiquitin yeast two-hybrid (DUALhunter), S. cerevisiae NMY51; bait as Cub fusion, prey as NubG fusion; growth on SD-LWHA with 45 and 55 mM 3-AT, 28°C, and β-galactosidase activity (X-gal, ONPG)
[1] = target: Opuntia streptacantha SK3 dehydrin OpsDHN1, full-length version, split-ubiquitin fusion (Opuntia streptacantha)
[2] = target: OpsDHN1-SK2, C-terminal truncated version (residues 1-199), split-ubiquitin fusion (Opuntia streptacantha)
[3] = target: OpsDHN1-S(ΔH)K3, version without the histidine-rich motif (residues 1-111/138-248), split-ubiquitin fusion (Opuntia streptacantha)
[4] = target: SV40 LargeT antigen (Cub) (SV40)

**Q.** With “OpsDHN1-SK2, C-terminal truncated version (residues 1-199), split-ubiquitin fusion (domain or fragment)” as the substance, how does the β-galactosidase activity (two-hybrid reporter) (nmol ONP/min/mg protein) [1] read?
**A.** Its β-galactosidase activity (two-hybrid reporter) (nmol ONP/min/mg protein) is 146.

**Q.** With “Opuntia streptacantha SK3 dehydrin OpsDHN1, full-length version, split-ubiquitin fusion (natural protein)” as the substance, how does the β-galactosidase activity (two-hybrid reporter) (nmol ONP/min/mg protein) [2] read?
**A.** The β-galactosidase activity (two-hybrid reporter) (nmol ONP/min/mg protein) was 142.

**Q.** And the β-galactosidase activity (two-hybrid reporter) (nmol ONP/min/mg protein) [1]?
**A.** Its β-galactosidase activity (two-hybrid reporter) (nmol ONP/min/mg protein) is 462.

**Q.** And the β-galactosidase activity (two-hybrid reporter) (nmol ONP/min/mg protein) [3]?
**A.** Its β-galactosidase activity (two-hybrid reporter) (nmol ONP/min/mg protein) is 70.5.

**Q.** For “tumor suppressor Δp53 (NubG) (domain or fragment)”, which β-galactosidase activity (two-hybrid reporter) (nmol ONP/min/mg protein) [4] is on record?
**A.** Its β-galactosidase activity (two-hybrid reporter) (nmol ONP/min/mg protein) is 656.
